T1: chimeric Leptin (Hu)-EPO (Mu) receptor presented by the 32D OBECA cell line (human; murine, UniProt P48357 22-839; P14753 250-507)
T1 sequence (looked up): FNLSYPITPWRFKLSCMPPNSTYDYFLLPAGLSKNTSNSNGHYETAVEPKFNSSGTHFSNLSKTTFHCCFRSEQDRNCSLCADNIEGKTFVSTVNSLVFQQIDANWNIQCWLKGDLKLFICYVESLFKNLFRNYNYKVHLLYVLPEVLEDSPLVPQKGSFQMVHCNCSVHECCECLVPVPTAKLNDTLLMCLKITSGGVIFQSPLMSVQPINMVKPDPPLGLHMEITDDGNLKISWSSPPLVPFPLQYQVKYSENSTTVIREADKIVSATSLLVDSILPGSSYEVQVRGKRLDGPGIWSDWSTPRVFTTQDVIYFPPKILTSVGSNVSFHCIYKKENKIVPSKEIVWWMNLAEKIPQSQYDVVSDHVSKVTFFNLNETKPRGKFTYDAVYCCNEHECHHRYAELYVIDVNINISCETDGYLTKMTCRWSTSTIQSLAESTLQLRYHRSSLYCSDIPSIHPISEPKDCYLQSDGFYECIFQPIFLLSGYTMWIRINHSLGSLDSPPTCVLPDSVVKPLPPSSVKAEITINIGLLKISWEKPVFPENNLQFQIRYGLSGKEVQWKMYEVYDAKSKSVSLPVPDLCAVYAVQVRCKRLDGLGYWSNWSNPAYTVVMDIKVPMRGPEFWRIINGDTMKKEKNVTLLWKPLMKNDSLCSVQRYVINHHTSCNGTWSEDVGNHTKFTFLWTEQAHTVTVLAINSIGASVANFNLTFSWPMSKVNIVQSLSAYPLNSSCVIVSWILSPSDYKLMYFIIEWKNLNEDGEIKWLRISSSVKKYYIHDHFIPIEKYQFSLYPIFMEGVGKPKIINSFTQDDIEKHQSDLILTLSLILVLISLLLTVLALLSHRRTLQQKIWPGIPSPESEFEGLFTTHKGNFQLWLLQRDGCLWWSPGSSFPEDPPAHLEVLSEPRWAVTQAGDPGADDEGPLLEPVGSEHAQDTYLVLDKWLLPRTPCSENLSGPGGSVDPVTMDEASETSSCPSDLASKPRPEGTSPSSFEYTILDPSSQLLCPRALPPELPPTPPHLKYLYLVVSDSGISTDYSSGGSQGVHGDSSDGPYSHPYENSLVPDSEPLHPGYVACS


How the values were obtained:
[1] = target: T1, chimeric Leptin (Hu)-EPO (Mu) receptor …; assay: cell-based or functional assay
[2] = target: T1, chimeric Leptin (Hu)-EPO (Mu) receptor …; assay: Obeca cell binding: displacement of 125I-murine leptin from 32D OBECA cell membranes

Row | EC50 (Obeca Stat 5 functional assay) [1] | IC50 [2] | Binder
1 | 0.095 nM | – | Seal leptin with N-terminal methionine, and with amino acids 3-22 replaced with amino acids 5-24 (helix 1) of metreleptin (ligand) MPIQKVQDDTKTLIKTIVTRINDISPPQGVCSRPRVAGLDFIPRVQSVRTLSGMDQILATYQQILTSLQSRSVVQIANDLANLRALLRLLASAKSCPVPRARGSDTIKGLGNVLRASVHSTEVVALSRLKAALQDMLRQLDRNPGC
2 | 0.032 nM | 3.54 nM | Seal leptin with N-terminal methionine, and with amino acids 120-141 replaced with amino acids 122-143 (helix 4) of metreleptin (ligand, Seal-human chimeric leptin; also called Compound 44) MPIQRVQDDTKTLIKTIITRINDISPPQGVCSRPRVAGLDFIPRVQSVRTLSGMDQILATYQQILTSLQSRSVVQIANDLANLRALLRLLASAKSCPVPRARGSDTIKGLGNVLRASVHSTEVVALSRLQGSLQDMLWQLDLNPGC
3 | 0.028 nM | 0.555 nM | Seal leptin with N-terminal methionine, and with amino acids 71-92 replaced with amino acids 73-94 (helix 3) of metreleptin (ligand, Seal-human chimeric leptin; also called Compound 41; Cmpd 41) MPIQRVQDDTKTLIKTIITRINDISPPQGVCSRPRVAGLDFIPRVQSVRTLSGMDQILATYQQILTSLQSRNVIQISNDLENLRDLLHVLAFSKSCPVPRARGSDTIKGLGNVLRASVHSTEVVALSRLKAALQDMLRQLDRNPGC
4 | 0.029 nM | 0.527 nM | Seal leptin with N-terminal methionine, and with amino acids 3-22 replaced with amino acids 5-24 (helix 1) of metreleptin, and amino acids 72-93 replaced with … (ligand, Seal-human chimeric leptin; also called Compound 45) MPIQKVQDDTKTLIKTIVTRINDISPPQGVCSRPRVAGLDFIPRVQSVRTLSGMDQILATYQQILTSLQSRNVIQISNDLENLRDLLHVLAFSKSCPVPRARGSDTIKGLGNVLRASVHSTEVVALSRLKAALQDMLRQLDRNPGC
5 | 0.039 nM | 0.036 nM | Seal leptin with N-terminal methionine, and with amino acids 30 and 71-92 replaced with amino acids 32 and 73-94 (helix 3) of metreleptin (ligand, Seal-human chimeric leptin; also called Compound 48; Cmpd 48) MPIQRVQDDTKTLIKTIITRINDISPPQGVSSRPRVAGLDFIPRVQSVRTLSGMDQILATYQQILTSLQSRNVIQISNDLENLRDLLHVLAFSKSCPVPRARGSDTIKGLGNVLRASVHSTEVVALSRLKAALQDMLRQLDRNPGC
6 | 0.054 nM | 3.08 nM | Seal leptin with N-terminal methionine, and with amino acids 50-65 replaced with amino acids 52-67 (helix 2) of metreleptin (ligand, Seal-human chimeric leptin; also called Compound 43) MPIQRVQDDTKTLIKTIITRINDISPPQGVCSRPRVAGLDFIPRVQSVRTLSKMDQTLAVYQQILTSLQSRSVVQIANDLANLRALLRLLASAKSCPVPRARGSDTIKGLGNVLRASVHSTEVVALSRLKAALQDMLRQLDRNPGC
7 | 0.043 nM | 2.02 nM | Seal leptin with N-terminal methionine, and with amino acids 93-119 replaced with amino acids 95-121 (loop 3-4) of metreleptin (ligand, Seal-human chimeric leptin; also called Compound 42; Cmpd 42) MPIQRVQDDTKTLIKTIITRINDISPPQGVCSRPRVAGLDFIPRVQSVRTLSGMDQILATYQQILTSLQSRSVVQIANDLANLRALLRLLASAKSCHLPWASGLETLDSLGGVLEASGYSTEVVALSRLKAALQDMLRQLDRNPGC
8 | 0.034 nM | 0.105 nM | Seal leptin with N-terminal methionine, and with amino acids 30 and 93-119 replaced with amino acids 32 and 95-121 (loop 3-4) of metreleptin (ligand, Seal-human chimeric leptin; also called Compound 49; Cmpd 49) MPIQRVQDDTKTLIKTIITRINDISPPQGVSSRPRVAGLDFIPRVQSVRTLSGMDQILATYQQILTSLQSRSVVQIANDLANLRALLRLLASAKSCHLPWASGLETLDSLGGVLEASGYSTEVVALSRLKAALQDMLRQLDRNPGC
9 | 0.022 nM | 0.214 nM | Seal leptin with N-terminal methionine, with amino acids 71-92 replaced with amino acids 73-94 (helix 3) of metreleptin, and with amino acids 93-119 replaced … (ligand, Seal-human chimeric leptin; also called Compound 50) MPIQRVQDDTKTLIKTIITRINDISPPQGVCSRPRVAGLDFIPRVQSVRTLSGMDQILATYQQILTSLQSRNVIQISNDLENLRDLLHVLAFSKSCHLPWASGLETLDSLGGVLEASGYSTEVVALSRLKAALQDMLRQLDRNPGC
10 | 0.019 nM | 2 nM | Seal leptin (ligand, also called Compound 38; Cmpd 38) PIQRVQDDTKTLIKTIITRINDISPPQGVCSRPRVAGLDFIPRVQSVRTLSGMDQILATYQQILTSLQSRSVVQIANDLANLRALLRLLASAKSCPVPRARGSDTIKGLGNVLRASVHSTEVVALSRLKAALQDMLRQLDRNPGC
11 | 0.0625 nM | 0.788 nM | Seal leptin with N-terminal methionine, with amino acids 23-49 replaced with amino acids 25-51 (AB loop) of metreleptin, and with amino acids 93-119 replaced … (ligand, Seal-human chimeric leptin; also called Compound 47) MPIQRVQDDTKTLIKTIITRINDISHTQSVSSKQKVTGLDFIPGLHPILTLSGMDQILATYQQILTSLQSRSVVQIANDLANLRALLRLLASAKSCHLPWASGLETLDSLGGVLEASGYSTEVVALSRLKAALQDMLRQLDRNPGC
12 | 0.044 nM | – | Seal leptin with N-terminal methionine, with amino acids 23-49 replaced with amino acids 25-51 (AB loop) of metreleptin, with amino acids 93-119 replaced with … (ligand) MPIQRVQDDTKTLIKTIITRINDISHTQSVSSKQKVTGLDFIPGLHPILTLSGMDQILATYQQILTSLQSRNVIQISNDLENLRDLLHVLAFSKSCHLPWASGLETLDSLGGVLEASGYSTEVVALSRLKAALQDMLRQLDRNPGC
13 | 0.042 nM | 0.479 nM | Seal leptin with N-terminal methionine, and with amino acids 23-49 replaced with amino acids 25-51 (AB loop) of metreleptin (ligand, Seal-human chimeric leptin; also called Compound 46) MPIQRVQDDTKTLIKTIITRINDISHTQSVSSKQKVTGLDFIPGLHPILTLSGMDQILATYQQILTSLQSRSVVQIANDLANLRALLRLLASAKSCPVPRARGSDTIKGLGNVLRASVHSTEVVALSRLKAALQDMLRQLDRNPGC
14 | 0.588 nM | 2.41 nM | Seal leptin with N-terminal methionine, with amino acids 23-49 replaced with amino acids 25-51 (AB loop) of metreleptin, and with amino acids 120-141 replaced … (ligand, Seal-human chimeric leptin; also called Compound 40) MPIQRVQDDTKTLIKTIITRINDISHTQSVSSKQKVTGLDFIPGLHPILTLSGMDQILATYQQILTSLQSRSVVQIANDLANLRALLRLLASAKSCPVPRARGSDTIKGLGNVLRASVHSTEVVALSRLQGSLQDMLWQLDLNPGC
15 | 0.038 nM | 0.119 nM | Seal leptin with N-terminal methionine, and with amino acids 71-92 replaced with amino acids 73-94 (helix 3) of metreleptin, and with amino acids 23-49 … (ligand, Seal-human chimeric leptin; also called Compound 51) MPIQRVQDDTKTLIKTIITRINDISHTQSVSSKQKVTGLDFIPGLHPILTLSGMDQILATYQQILTSLQSRNVIQISNDLENLRDLLHVLAFSKSCPVPRARGSDTIKGLGNVLRASVHSTEVVALSRLKAALQDMLRQLDRNPGC

From patent US20130203661A1 (AEGERION PHARMACEUTICALS, published 2013)
